From patent US20200277355A1
Where two headings read alike, the source gives them in different places.

Key:
TNFR1 [1] = molecular target: T1, TNFR1
T1 chain: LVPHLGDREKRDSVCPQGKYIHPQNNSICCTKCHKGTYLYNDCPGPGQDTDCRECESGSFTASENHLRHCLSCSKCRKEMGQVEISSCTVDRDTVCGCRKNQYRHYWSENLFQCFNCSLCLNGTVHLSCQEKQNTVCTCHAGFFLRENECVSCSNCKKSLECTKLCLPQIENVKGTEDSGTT

TNFR1 [2] = molecular target: T1, TNFR1
TNFR1 [3] = molecular target: T1, TNFR1
TNFR1 [4] = molecular target: T1, TNFR1; experiment: SPR (BIAcore), TNFR1 on CM-5 chip, peptide injected

B1: selective TNFR1 antagonist peptide Hydrostatin-SN10 (peptide)
peptide: DEQHLETELH
modifications: not checked
TNFR1 [1]
  Kd: 2.8 µM
TNFR1 [2]
  Kd: 2.77 µM
TNFR1 [3]
  Kd: 2.83 µM
TNFR1 [4]
  Kd: 2.8 µM
